One assay deals with T1, FIXa-SM (FIXa+EGR-CMK) (human, UniProt P00740 47-191; P00740 227-461, EGR-CMK (L-Glu-Gly-Arg chloromethyl ketone) covalently bound to the active site).
T1 construct: BLI antigen bought from Haematologic Technologies (HCIXA-EGR); also called FIXa with substrate mimic
Description: BLI; class meaning: paragraph 914. (In general: BLI is a label-free optical method that tracks binding on a fibre tip over time.)

In assay [1] the target is T2, free FIXa (activated Factor IX) (human, UniProt P00740 47-191; P00740 227-461).
T2 construct: BLI antigen bought from Haematologic Technologies (HCIXA-0050); also called factor IXa
As to the kind of experiment: BLI; class meaning: paragraph 914.

B1: BIIB-9-445 (antibody, V domains shown)
VH: QVQLVQSGAEVKKPGASVKVSCKASGYTFTSYYIHWVRQAPGQGLEWMGIINPSGGSTSYAQKFQGRVTMTRDTSTSTVYMELSSLRSEDTAVYYCARDVGQDYWFDLWGRGTLVTVSS
VL: EIVMTQSPATLSVSPGERATLSCRASQSVSSNLAWYQQKPGQAPRLLIYSASTRATGIPARFSGSGSGTEFTLTISSLQSEDFAVYYCQQYDNFPFTFGGGTKVEIK
notes: IgG
For B1, the binding result (with FIXa-SM (FIXa+EGR-CMK); in assay [1]) was “binds” in each case.

B2: BIIB-9-1269 (antibody, V domains shown)
VH: QVQLVQSGAEVKKPGASVKVSCKASGYTFTSYYMHWVRQAPGQGLEWMGIINPSGGSTSYAQKFQGRVTMTRDTSTSTVYMELSSLRSEDTAVYYCARDRGQYYHFDLWGRGTLVTVSS
VL: DIQMTQSPSSVSASVGDRVAITCRASQGISSWLAWYQQKPGKAPKLLIYAASSLQSGVPSRFSGSGSGTDFTLTISSLQPEDFATYYCQQASSFPFTFGGGTKVEIK
notes: IgG
For the molecule B2, the binding result (with FIXa-SM (FIXa+EGR-CMK); in assay [1]) was “binds” throughout.

B3: BIIB-9-1268 (antibody, V domains shown)
VH: QVQLVQSGAEVKKPGASVKVSCKASGYTFTSYYMHWVRQAPGQGLEWMGIINPSGGSTSYAQKFQGRVTMTRDTSTSTVYMELSSLRSEDTAVYYCARDPPSWYVFDIWGQGTMVTVSS
VL: EIVMTQSPATLSLSPGERATLSCRASQSVSSYLAWYQQKPGQAPRLLIYDASNRATGIPARFSGSGSGTDFTLTISSLEPEDFAVYYCQQATVWPFTFGGGTKVEIK
notes: IgG
For the molecule B3, the binding result (in the assay with FIXa-SM (FIXa+EGR-CMK); in assay [1]) was “binds” each time.

B4: BIIB-9-470 (antibody, V domains shown)
VH: EVQLVESGGGLVQPGGSLRLSCAASGFTFSSYWMSWVRQAPGKGLEWVANIKQDGSEKYYVDSVKGRFTISRDNAKNSLYLQMNSLRAEDTAVYYCARDAGIAWALDYWGQGTLVTVS
VL: DIQMTQSPSTLSASVGDRVTITCRASQSISSWLAWYQQKPGKAPKLLIYKASSLESGVPSRFSGSGSGTEFTLTISSLQPDDFATYYCQHPHSWTFGGGTKVEIK
notes: IgG
For B4, the binding result (with FIXa-SM (FIXa+EGR-CMK); in assay [1]) was “binds” each time.

B5: BIIB-9-1264 (antibody, V domains shown)
VH: QVQLVQSGAEVKKPGASVKVSCKASGYTFTSYYMHWVRQAPGQGLEWMGIINPSGGSTSYAQKFQGRVTMTRDTSTSTVYMELSSLRSEDTAVYYCARDGDSSVYAFDYWGQGTLVTVSS
VL: DIQMTQSPSSLSASVGDRVTITCQASQDITNYLNWYQQKPGKAPKLLIYDASNLETGVPSRFSGSGSGTDFTFTISSLQPEDIATYYCQQVDDYPFTFGGGTKVEIK
notes: IgG
Consider B5, for which the binding result (with FIXa-SM (FIXa+EGR-CMK); in assay [1]) was “binds” each time.

B6: BIIB-9-1267 (antibody, V domains shown)
VH: QVQLVQSGAEVKKPGASVKVSCKASGYTFTSYYMHWVRQAPGQGLEWMGIINPSGGSTSYAQKFQGRVTMTRDTSTSTVYMELSSLRSEDTAVYYCARDHGWAIYGMDVWGQGTTVTVSS
VL: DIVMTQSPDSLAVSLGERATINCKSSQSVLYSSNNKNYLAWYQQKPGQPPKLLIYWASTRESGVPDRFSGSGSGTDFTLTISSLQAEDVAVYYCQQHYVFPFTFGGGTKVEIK
notes: IgG
Regarding B6, the binding result (with FIXa-SM (FIXa+EGR-CMK); in assay [1]) was “binds” throughout.

B7: BIIB-9-1270 (antibody, V domains shown)
VH: QVQLVQSGAEVKKPGASVKVSCKASGYTFTSYYMHWVRQAPGQGLEWMGIINPSGGSTSYAQKFQGRVTMTRDTSTSTVYMELSSLRSEDTAVYYCARDTGGYAFDIWGQGTLVTVSS
VL: EIVLTQSPATLSLSPGERATLSCRASQSVSSYLAWYQQKPGQAPRLLIYDASNRATGIPARFSGSGSGTDFTLTISSLEPEDFAVYYCQQSADFPFTFGGGTKVEIK
notes: IgG
With B7, the binding result (with FIXa-SM (FIXa+EGR-CMK); in assay [1]) was “binds” in each case.

B8: BIIB-9-1273 (antibody, V domains shown)
VH: QVQLVQSGAEVKKPGASVKVSCKASGYTFTSYYMHWVRQAPGQGLEWMGIINPSGGSTSYAQKFQGRVTMTRDTSTSTVYMELSSLRSEDTAVYYCARDTGGYAFDIWGQGTLVTVSS
VL: EIVLTQYPATLSLSPGERATLSCRASQSVSSYLAWYQQKPGQAPRLLIYDASNRATGIPARFSGSGSGTDFTLTISSLEPEDFAVYYCQQSANFPFTFGGGTKVEIK
notes: IgG
With B8, the binding result (with FIXa-SM (FIXa+EGR-CMK); in assay [1]) was “binds” throughout.

B9: BIIB-9-1271 (antibody, V domains shown)
VH: QVQLVQSGAEVKKPGASVKVSCKASGYTFTSYYMHWVRQAPGQGLEWMGIINPSGGSTSYAQKFQGRVTMTRDTSTSTVYMELSSLRSEDTAVYYCARDTGGYAFDIWGQGTLVTVSS
VL: EIVMTQSPATLSVSPGERATLSCRASQSVSSNLAWYQQKPGQAPRLLIYGASTRATGIPARFSGSGSGTDFTLTISSLQPEDFATYYCQQGFSFPFTFGGGTKVEIK
notes: IgG
As to B9, the binding result (with FIXa-SM (FIXa+EGR-CMK); in assay [1]) was “binds” each time.

B10: BIIB-9-625 (antibody, V domains shown)
VH: QLQLQESGPGLVKPSETLSLTCTVSGGSISSSSYAWGWIRQPPGKGLEWIGSIYYSGSTYYNPSLKSRVTISVDTSKNQFSLKLSSVTAADTAVYYCARDRGWYTEVLDIWGQGTMVTVSS
VL: DIQMTQSPSSLSASVGDRVTITCRASQSISSYLNWYQQKPGKAPKLLIYAASSLQSGVPSRFSGSGSGTDFTLTISSLQPEDFATYYCQQSDTDPPTFGGGTKVEIK
notes: IgG
B10: the binding result (with FIXa-SM (FIXa+EGR-CMK); in assay [1]) was “binds” in each case.

B11: BIIB-9-1272 (antibody, V domains shown)
VH: QVQLVQSGAEVKKPGASVKVSCKASGYTFTSYYMHWVRQAPGQGLEWMGIINPSGGSTSYAQKFQGRVTMTRDTSTSTVYMELSSLRSEDTAVYYCARDTGGYAFDIWGQGTLVTVSS
VL: DIQMTQSPSSVSASVGDRVTITCRASQGISSWLAWYQQKPGKAPKLLIYAASSLQSGVPSRFSGSGSGTDFTLTISSLQPEDFATYYCQQASSFPFTFGGGTKVEIK
notes: IgG
As to B11, the binding result (with FIXa-SM (FIXa+EGR-CMK); in assay [1]) was “binds” in each case.

B12: BIIB-9-1276 (antibody, V domains shown)
VH: QLQLQESGPGLVKPSETLSLTCTVSGGSISSSSYYWGWIRQPPGKGLEWIGSIYYSGSTYYNPSLKSRVTISVDTSKNQFSLKLSSVTAADTAVYYCARDVGRTYELFDIWGQGTMVTVSS
VL: DIQMTQSPSSVSASVGDRVTITCRASQGISSWLAWYQQKPGKAPKLLIYAASSLQSGVPSRFSGSGSGTDFTLTISSLQPEDFATYYCQQGNSFPITFGGGTKVEIK
notes: IgG
On to B12, for which the binding result (with FIXa-SM (FIXa+EGR-CMK); in assay [1]) was “binds” throughout.

B13: BIIB-9-1265 (antibody, V domains shown)
VH: QLQLQESGPGLVKPSETLSLTCTVSGGSISSSSYYWGWIRQPPGKGLEWIGSIYYSGSTYYNPSLKSRVTISVDTSKNQFSLKLSSVTAADTAVYYCARDGRHYYELFDYWGQGTLVTVSS
VL: DIQMTQSPSSVSASVGDRVTITCRASQGISSWLAWYQQKPGKAPKLLIYAASSLQSGVPSRFSGSGSGTDFTLTISSLQPEDFATYYCQQGNSFPITFGGGTKVEIK
notes: IgG
On to B13, for which the binding result (in the assay with FIXa-SM (FIXa+EGR-CMK); in assay [1]) was “binds” throughout.

B14: BIIB-9-1274 (antibody, V domains shown)
VH: QVQLVQSGAEVKKPGASVKVSCKASGYTFTSYYMHWVRQAPGQGLEWMGIINPSGGSTSYAQKFQGRVTMTRDTSTSTVYMELSSLRSEDTAVYYCARDTGGYAFDIWGQGTLVTVSS
VL: DIQMTQSPSSVSASVGDRVTITCRASQGISSWLAWYQQKPGKAPKLLIYAASSLQSGVPSRFSGSGSGTDFTLTISSLQPEDFATYYCQQANSFPFTFGGGTKVEIK
notes: IgG
With B14, the binding result (in the assay with FIXa-SM (FIXa+EGR-CMK); in assay [1]) was “binds” in each case.

Source of the values: patent US20230192896A1 (BIOVERATIV THERAPEUTICS, published 2023).
